Reference: patent US20250002564A1 (HOSPITAL FOR SICK CHILDREN, published 2025)
Read-outs that look alike come from different tables or passages of the source.

B1: 4A8 IgG (antibody, V domains shown)
VH: EVQLVESGAEVKKPGASVKVSCKVSGYTLTELSMHWVRQAPGKGLEWMGGFDPEDGETMYAQKFQGRVTMTEDTSTDTAYMELSSLRSEDTAVYYCATSTAVAGTPDLFDYYYGMDVWGQGTTVTVSS
VL: EIVMTQSPLSSPVTLGQPASISCRSSQSLVHSDGNTYLSWLQQRPGQPPRLLIYKISNRFSGVPDRFSGSGAGTDFTLKISRVEAEDVGVYYCTQATQFPYTFGQGTKVDIK
notes: also called IgG 4A8
B2: mAb 236 (antibody, V domains shown)
VH: QVQLVQSGAEVKKPGASVKVSCKASGGTFTSYGINWVRQAPGQGLEWMGWMNPNSGNTGYAQKFQGRVTMTRDTSTSTVYMELSSLRSEDTAVYYCASRGIQLLPRGMDVWGQGTTVTVSS
VL: not shown
notes: also called IgG 236; Antibody 236

Assays:
[1] = molecular target: T1, SARS-CoV-2 prefusion S ectodomain (Spike trimer), His-tagged (SARS-CoV-2, UniProt P0DTC2 14-1213); assay: BLI, His-tagged Spike on Ni-NTA sensor
T1 construct: extracellular domain; also called SARS-CoV-2 Spike; S protein

[2] = molecular target: T2, SARS-CoV-2 receptor binding domain (RBD), wild type, His-tagged (SARS-CoV-2, UniProt P0DTC2 319-541); assay: BLI competition on His-tagged RBD, after 1st Ab 52
T2 construct: domain: RBD; also called His-tagged RBD; BEI NR52309

[3] = molecular target: T3, SARS-CoV-2 RBD mutant L452R (SARS-CoV-2, UniProt P0DTC2 319-541); assay: BLI, IgG on mutated RBD compared with WT RBD; negative = decreased
T3 construct: domain: RBD; also called mutated RBD L452R

[4] = molecular target: T2, SARS-CoV-2 receptor binding domain …; assay: BLI competition on His-tagged RBD, after 1st Ab 298
[5] = molecular target: T2, SARS-CoV-2 receptor binding domain …; assay: BLI competition on His-tagged RBD, after 1st Ab 80
[6] = molecular target: T2, SARS-CoV-2 receptor binding domain …; assay: BLI competition on His-tagged RBD, after 1st Ab 236
[7] = molecular target: T2, SARS-CoV-2 receptor binding domain …; assay: BLI competition on His-tagged RBD, after 1st Ab 324
[8] = molecular target: T2, SARS-CoV-2 receptor binding domain …; assay: method and format not given
[9] = molecular target: T2, SARS-CoV-2 receptor binding domain …; assay: method and format not given; remark: listed apart in the source
[10] = molecular target: T2, SARS-CoV-2 receptor binding domain …; assay: BLI competition on His-tagged RBD, after 1st Ab 46
[11] = molecular target: T2, SARS-CoV-2 receptor binding domain …; assay: BLI competition on His-tagged RBD, after 1st Ab 82

Binder	Kd [1]	koff [1]	kon [1]	RBD binding of 2nd Ab after 1st Ab (heat map) [2]	Affinity change vs WT RBD (fold-change) [3]	RBD binding of 2nd Ab after 1st Ab (heat map) [4]	RBD binding of 2nd Ab after 1st Ab (heat map) [5]	RBD binding of 2nd Ab after 1st Ab (heat map) [6]	RBD binding of 2nd Ab after 1st Ab (heat map) [7]	Kd [8]	Kd [9]	RBD binding of 2nd Ab after 1st Ab (heat map) [10]	RBD binding of 2nd Ab after 1st Ab (heat map) [11]
B1	1.42 nM	0.000191 s⁻¹	133000 M⁻¹ s⁻¹										
B2				1	-4.1	0.2	0.1	0.3	0.4	145 nM	145 nM	1.2	0.2
